B1: MFF (parent)
chain: DDLTVVDAASLRRQIIKLNRRLQL

Variants of: B1
Experiment: protein stability index of a GFP-peptide fusion (GPS, HEK-293T) (PSI 1-6); higher = more stable
Conditions: c terminus: a fixed tail appended
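Also: lentivirally expressed fusions sorted by FACS into six bins by GFP to DsRed ratio, PSI derived from sequencing read proportions per bin multiplied by bin number.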

Protein stability index of substitutions, site by site:
D2: V 1.13; L 1.24; F 2.48; M 2.09; I 1.85; Y 2; W 2.86; Q 2.32; S 2.24; N 2.22; R 1.82; P 2.45; A 2.37; T 2.31; K 2.3; G 2.56; C 2.73; E 1.72; H 2.02
L3: C 2.33; H 2.73; I 1.8; N 2.09; T 2.2; K 2.34; P 2.48; D 2.58; E 2.56; Q 2.45; S 2.57; M 3.06; W 1.48; Y 1.96; G 2.58; A 2.59; R 2.58; F 2.73; V 2.8
L18: Y 3.26; P 3.42; M 2.38; W 1.84; K 3.31; C 1.62; V 1.95; G 2.48; H 3; R 3.73; N 3.39; D 4.13; I 3.42; A 1.86; S 3.04; F 3.41; T 2.89
V5: E 2.38; S 2.5; H 2.69; A 2.44; K 2.47; L 1.69; R 1.7; Q 2.26; P 2.42; N 2.61; W 1.93; D 2.37; M 2.05; T 2.69; I 2.66; F 1.72; Y 2.17; C 1.72
L11: S 3.73; N 2.59; P 3.33; V 3.05; E 3.7; R 3.91; Q 3.24; W 2.84; D 3.79; T 3.39; C 2.16; A 2.33; F 2.48; G 3.84; Y 2.82; H 3.19; M 2.51; K 3.28; I 2.72
D1: N 2.1; C 2.04; W 1.88; Q 3.2; G 2.17; M 1.98; H 1.84; P 2.05; I 2.32; S 2.28; K 1.84; T 1.78; Y 2.81; A 2.08; R 2.45; F 2.42; E 1.67; L 1.61; V 2.39
R12: P 2.51; V 2.06; S 2.1; K 2.01; A 2.07; F 1.99; L 1.67; N 2.42; G 1.85; T 1.73; Y 1.9; W 1.92; C 1.95; H 2.58; M 1.64; Q 2.13; D 2.5; I 1.23
V6: K 2.35; L 2.37; S 1.64; H 2.71; F 2.29; E 2.08; T 2.34; Q 1.9; A 2.91; Y 1.77; G 3.34; I 1.55; N 2.4; R 2.91; M 1.99; C 2.41; W 2.4; D 2.3; P 4.09
S10: I 1.72; W 3.84; H 2.02; C 1.48; A 1.7; M 1.42; Q 2.28; R 2.83; E 2.13; F 2.32; N 2.28; D 2.05; L 1.24; T 1.61; K 1.79; V 1.64; P 2.89; G 2.3; Y 1.69
R13: S 2.39; A 2.88; T 1.85; F 1.69; I 1.41; Y 1.7; C 2.22; E 2.42; D 2.27; N 2.21; Q 2.06; K 2.17; L 2.56; H 1.95; G 2.14; M 2.54; V 2.55; P 2.56
K17: C 2.44; T 2.47; Y 1.89; G 1.99; D 1.85; R 2.24; V 1.66; L 2.37; H 2.08; I 1.85; P 3.72; S 2.76; W 1.74; A 1.01; Q 1.57; N 2.2
T4: R 2.18; H 1.7; E 2.21; L 2.62; Y 1.43; A 1.91; F 2.08; Q 2.32; M 2.24; I 2.2; C 1.86; D 2.6; N 2.3; V 1.96; S 2.43; P 1.56; K 2.15
I16: A 2.48; N 2.8; D 2.85; E 1.88; M 1.67; F 3.4; T 1.92; S 1.52; Q 1.98; Y 2.97; H 2.26; G 1.64; R 3.58; C 1.69; P 3.66; L 2.19
D7: N 1.89; F 1.85; W 1.92; A 2.29; P 2.71; E 2.04; G 2.71; Q 2.17; T 1.64; R 2.93; C 1.4; H 3.12; M 2.19; S 2.24; K 1.89; Y 1.61
Q14: K 2.23; T 3.2; N 2.31; P 3.56; D 2.16; A 1.82; H 1.57; Y 1.54; M 1.04; F 1.51; C 2.27; L 2.45; I 2.3; R 2.58; E 1.78; S 2.11; G 2.5
N19: D 3.79; P 2.33; F 2.16; K 1.94; H 1.75; C 3.04; T 2.68; S 2.38; E 3; Q 2.01; R 1.76; M 1.74; I 2.02
A8: S 2.49; H 1.95; V 1.9; T 1.69; Y 1.3; M 3.09; F 2.35; N 2.63; E 2.63; G 3.13; C 1.93; L 2.58; Q 2.38; I 1.61; R 2.57; P 2.42; D 2.8; K 3.29; W 2.17
I15: Y 2.57; G 3; S 3.74; M 1.87; F 2; A 2.43; Q 3.66; K 3.5; P 4.26; T 2.94; D 3.96; R 3.71; V 3.05; E 3.83; N 2.71; L 2.23; W 2.34
A9: Y 2.48; H 2.52; G 2.11; C 2.03; R 4.18; E 2.13; I 2.79; D 2.02; Q 2.22; T 1.82; K 2.31; N 2.42; S 2.2; L 2.08; P 2.12; F 1.58; W 1.84; M 1.84

From the supplement of paper PMC10567573
